From the supplement of paper PMC10567573
± gives the standard deviation.

Experiment: protein stability index of a GFP-peptide fusion (GPS, HEK-293T) (PSI 1-6); higher = more stable
[1] = treatment: DMSO, c terminus: a fixed tail appended
[2] = treatment: MLN4924 1 uM, 8 h, c terminus: a fixed tail appended
[3] = treatment: DMSO, c terminus: native
[4] = treatment: MLN4924 1 uM, 8 h, c terminus: native
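Also: 24-mer peptide tiles fused after GFP, lentivirally expressed, FACS-sorted into six equal bins by GFP/DsRed ratio, decoded by Illumina sequencing, PSI is the read-weighted mean bin number.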

EEEEEATNTHPPASLPSQKYPGPQ [CHGA]
protein stability index [1]: 5.61 ± 0.16 | protein stability index [2]: 5.54 ± 0.17

FLLVLAVVAGDTVSTGSTDNSPTS [ADAMTSL2]
protein stability index [1]: 2.5 ± 0.45 | protein stability index [2]: 2.28 ± 0.43

FNIAGTVVKYRRPMDVYETGIEYI [ADAMTSL2]
protein stability index [1]: 2.16 ± 0.33 | protein stability index [2]: 1.8 ± 0.046

AWLNEHRKNPYPTKGEKIMLAIIT [IRX6]
protein stability index [1]: 2.7 ± 0.42 | protein stability index [2]: 2.51 ± 0.41

GNGRPGRPSQYRPDGLRSGDGVPP [LCOR]
protein stability index [1]: 4.59 ± 0.31 | protein stability index [2]: 4.79 ± 0.2

IINAKSNDGWTPLHVAAHYGRDSF [ASB7]
protein stability index [1]: 2.46 ± 0.24 | protein stability index [2]: 2.41 ± 0.42

SPSTLIGSLRTLELGSESQGASES [HDAC6]
protein stability index [1]: 5.08 ± 0.29 | protein stability index [2]: 4.92 ± 0.33

HQRFLREGRFWKSKNEDRGEEEAE [ZMYND11]
protein stability index [1]: 4.94 ± 0.21 | protein stability index [2]: 5.27 ± 0.2

YLWMCSTLALLLNFLACLASFCVE [SCAMP3]
protein stability index [1]: 3.53 ± 0.36 | protein stability index [2]: 3.02 ± 0.12

PPGDIMFLLVQRFGELMRKLWNPR [USP39]
protein stability index [1]: 2.77 ± 0.31 | protein stability index [2]: 2.77 ± 0.17

LSTPDSQSLRCDLIRYICGVVHPS [INTS3]
protein stability index [1]: 2.29 ± 0.46 | protein stability index [2]: 2.29 ± 0.3

QGLLGRSPPTRPVPGHRSERAIRT [SPRY1]
protein stability index [1]: 4.51 ± 0.21 | protein stability index [2]: 4.47 ± 0.2

KKIQVNSKPSIQPKPLLLPAAPKT [ATF6]
protein stability index [1]: 4.18 ± 0.17 | protein stability index [2]: 4.221 ± 0.027

MSTEEQYRIRQVNIYYYLEDDSMS [EFHC1]
protein stability index [1]: 2.19 ± 0.26 | protein stability index [2]: 2.13 ± 0.3

QLLEDAILIIQGVLSDINLKKGES [NET1]
protein stability index [1]: 3.37 ± 0.24 | protein stability index [2]: 3.77 ± 0.19

GYKSNQVRGLYDFYLPREELWIYN [KLHDC2]
protein stability index [1]: 2.44 ± 0.16 | protein stability index [2]: 1.98 ± 0.17

MSWAKLARQATNLKVNFFFERIMK [FBXO39]
protein stability index [1]: 2.34 ± 0.19 | protein stability index [2]: 2.22 ± 0.35

LHSKEIVYRDLKPENILLDRDGHI [PRKX]
protein stability index [1]: 3.7 ± 0.15 | protein stability index [2]: 3.75 ± 0.097

TLSKSEYMVIEEGGMNHSAFPQTP [KCNA3]
protein stability index [1]: 3.43 ± 0.15 | protein stability index [2]: 3.53 ± 0.28

SVSLRKAERLRAELLDLKAGGFSI [MYORG]
protein stability index [1]: 2.25 ± 0.36 | protein stability index [2]: 2.39 ± 0.29

AEETANLPPSPPPSPASEQTVTVE [MAP2]
protein stability index [1]: 5.05 ± 0.18 | protein stability index [2]: 5.18 ± 0.17

GQLDEKEKDLVGLAQIAEVLEMFD [RHOBTB1]
protein stability index [1]: 3.4 ± 0.37 | protein stability index [2]: 3.61 ± 0.58

PAVRQRVIEEAKTAFLLNIQLFEE [HMOX1]
protein stability index [1]: 2.66 ± 0.37 | protein stability index [2]: 3.17 ± 0.26

SALGPPPAASNSSDLFDLMGSSQA [CLINT1]
protein stability index [1]: 4.7 ± 0.22 | protein stability index [2]: 4.49 ± 0.2

RPRPQGRSVSEPRDQHPQPSLGDS [RTN2]
protein stability index [1]: 5.04 ± 0.31 | protein stability index [2]: 5.296 ± 0.046

LHPDRDPGNPSLHSRFVELSEAYR [DNAJC4]
protein stability index [1]: 3.37 ± 0.22 | protein stability index [2]: 3.51 ± 0.19

KAFRSDSSFNFFVFFFIFFVQDVL [SCAMP3]
protein stability index [1]: 3.36 ± 0.43 | protein stability index [2]: 3.25 ± 0.17

TIEDEDVKARKQEIIKVTEQLIEA [CAMK2D]
protein stability index [1]: 5.25 ± 0.075 | protein stability index [2]: 5.26 ± 0.11

YQRFRQKSKASFLLLASGLVITDF [PTGFR]
protein stability index [1]: 2.65 ± 0.21 | protein stability index [2]: 2.49 ± 0.7

IPEKDMDERRRLLEQKTQESQKKK [ZNF207]
protein stability index [1]: 5.51 ± 0.27 | protein stability index [2]: 5.59 ± 0.11

NISGLRFETQLKTLCQFPETLLGD [KCNA3]
protein stability index [1]: 2.89 ± 0.26 | protein stability index [2]: 3.03 ± 0.23

GLPSSELDAVENQLKWASWELHSL [ZNF24]
protein stability index [1]: 2.98 ± 0.15 | protein stability index [2]: 3 ± 0.38

LKTSNLPEELRKVFITYSMDTAME [TRAF3IP2]
protein stability index [1]: 2.41 ± 0.28 | protein stability index [2]: 2.43 ± 0.56

VLALFVYVAWNEGSRQWREGKQD [VMA21]
protein stability index [3]: 2.51 ± 0.49 | protein stability index [4]: 2.85 ± 1.1

SDAANRNHEALRQAKQEMNESRRQ [PRPH]
protein stability index [1]: 5.2 ± 0.26 | protein stability index [2]: 4.96 ± 0.34

QVGRGLRYIHSMSLVHMDIKPSNI [WEE1]
protein stability index [1]: 2.15 ± 0.3 | protein stability index [2]: 2.08 ± 0.25

VEPVCSGLQAQILHCYRDRPHEVL [CHCHD6]
protein stability index [1]: 2.93 ± 0.21 | protein stability index [2]: 2.94 ± 0.5

YVEIRTFEPRLLVQSIELQRPRFI [VPS39]
protein stability index [1]: 2.33 ± 0.76 | protein stability index [2]: 2.65 ± 0.7

CSSSTRSVLKRPERSQEESPPGST [CDC25A]
protein stability index [1]: 5.17 ± 0.21 | protein stability index [2]: 4.95 ± 0.34

AMGDHSKKKPGTAMCVGCGSQIHD [ISL2]
protein stability index [1]: 4.18 ± 0.32 | protein stability index [2]: 4.3 ± 0.26

NCKLATRAKDFLPADIQAQFAISR [SNX8]
protein stability index [1]: 2.45 ± 0.21 | protein stability index [2]: 2.73 ± 0.52

SSSRDTDWVVVKEPVIKVAAIDNG [PI4K2A]
protein stability index [1]: 4.25 ± 0.1 | protein stability index [2]: 4 ± 0.11

QSSPSFAEKCLDFLVDMFNDEIEE [INTS4]
protein stability index [1]: 2.87 ± 0.1 | protein stability index [2]: 3.18 ± 0.2

FPEALDELPLPPFLQPLDLTGKG [ANKRD9]
protein stability index [3]: 3.43 ± 0.22 | protein stability index [4]: 3.52 ± 0.12

PACLGQPHTPGKPTSSCTSRSAPP [FOXJ1]
protein stability index [1]: 4.51 ± 0.13 | protein stability index [2]: 4.69 ± 0.11

PPPHLLPEKHQVPEKLIWGDQDPL [WDR88]
protein stability index [1]: 4.53 ± 0.23 | protein stability index [2]: 4.44 ± 0.15

QEYAAKIINTKKLSARDHQKLERE [CAMK2A]
protein stability index [1]: 4.71 ± 0.22 | protein stability index [2]: 4.78 ± 0.19

PSASLGKASSRKPFGILSPNVLCS [FBXO34]
protein stability index [1]: 2.71 ± 0.23 | protein stability index [2]: 2.8 ± 0.11

TDEEEGLIWVVGPVLAVVFIICIV [PTPRD]
protein stability index [1]: 2.1 ± 0.4 | protein stability index [2]: 2.07 ± 0.46

PCELPCKEYDVARNTGAYTSSGLA [TEKT4]
protein stability index [1]: 4.18 ± 0.19 | protein stability index [2]: 4.23 ± 0.13

WELGGGTSLLDLISIPITGDTLRT [DYNC2LI1]
protein stability index [1]: 2.22 ± 0.32 | protein stability index [2]: 2.36 ± 0.22

MADERKDEAKAPHWTSAPLTEASA [MAP2]
protein stability index [1]: 5.22 ± 0.43 | protein stability index [2]: 5.41 ± 0.19

LKTADWRVFLFQAPSKEEMLSWIL [PSD2]
protein stability index [1]: 2.16 ± 0.57 | protein stability index [2]: 2.04 ± 0.38

GLFVPSLLCGAAFGRLVANVLKSY [CLCN6]
protein stability index [1]: 2.2 ± 0.55 | protein stability index [2]: 2.37 ± 0.64

SPSPMDPHMAEQTFEQAIQAASRI [CDC25B]
protein stability index [1]: 4.68 ± 0.16 | protein stability index [2]: 4.56 ± 0.25

SKFKKLMKQGGAALEGSALANGRA [DLX1]
protein stability index [1]: 3.78 ± 0.34 | protein stability index [2]: 4 ± 0.26

RQFEFSVDSFQIILDSLLFFYDCS [TENT5C]
protein stability index [1]: 3.06 ± 0.57 | protein stability index [2]: 3.04 ± 0.61

RWTFEKACHPFLLGPPLVRKRIHD [TOR1AIP2]
protein stability index [1]: 2.64 ± 0.18 | protein stability index [2]: 2.76 ± 0.33

AEEHREKLLKQMRILWKKIQENQR [TRIM43]
protein stability index [1]: 2.46 ± 0.24 | protein stability index [2]: 2.21 ± 0.18

NHVAVAARYAQQKHRIRRVLIVDW [HDAC6]
protein stability index [1]: 2.34 ± 0.72 | protein stability index [2]: 2.09 ± 0.27

QYSSHHTAEKRKRLGELFNPYYDP [CHGB]
protein stability index [1]: 3.13 ± 0.25 | protein stability index [2]: 3.28 ± 0.2

AVLPTAFRVAKKRAPKVLGTTLVV [GDAP1]
protein stability index [1]: 2.18 ± 0.2 | protein stability index [2]: 2.15 ± 0.2

TRNGEVVTESQKEQRSELDKSSAH [PRPH]
protein stability index [1]: 5.06 ± 0.27 | protein stability index [2]: 5.31 ± 0.4

LHTANLGDSGFLVVRGGEVVHRSD [PPTC7]
protein stability index [1]: 3.62 ± 0.11 | protein stability index [2]: 3.76 ± 0.14

RFLRMLLRLADEFGVAVVITNQVV [RAD51]
protein stability index [1]: 2.46 ± 0.45 | protein stability index [2]: 2.45 ± 0.84

HARTHPQTALLESSCENKRADLVF [MATN2]
protein stability index [1]: 4.09 ± 0.46 | protein stability index [2]: 4.02 ± 0.19

RVTNVGSLLLTPQENESLFTFLGK [WASL]
protein stability index [1]: 2.84 ± 0.27 | protein stability index [2]: 3.19 ± 0.27

PMDLSTVKRKMDGREYPDAQGFAA [BRD3]
protein stability index [1]: 4.21 ± 0.2 | protein stability index [2]: 4.38 ± 0.43

FHKDCASRVNNASYCPHCGEESSK [EHMT1]
protein stability index [1]: 3.45 ± 0.15 | protein stability index [2]: 4.05 ± 0.47
